Publication PMC12297555

Target: T1, ScoC (Geobacillus kaustophilus strain T-1, UniProt Q5L293 1-201)
T1 sequence: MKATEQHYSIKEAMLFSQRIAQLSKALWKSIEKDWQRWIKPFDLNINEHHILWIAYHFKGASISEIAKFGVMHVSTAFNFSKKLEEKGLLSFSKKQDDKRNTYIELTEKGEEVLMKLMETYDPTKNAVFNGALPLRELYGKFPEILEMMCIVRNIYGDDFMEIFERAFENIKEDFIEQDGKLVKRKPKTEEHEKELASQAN
Experiment: X-ray crystallography

B1: Oligo 4, 23-bp symmetric palindromic dsDNA (dsDNA)
DNA 1: AATATTATTAACAAAATAATATT
DNA 2: AATATTATTTTGTTAATAATATT
**Q.** Does B1 bind?
**A.** binds
